{
  "source": "the supplement of paper PMC10567573",
  "parents": {"B1": {"name": "TNXB (parent)", "chain": "FSEIRETSAKVNWMPPPSRADSFK"}, "B2": {"name": "PBXIP1 (parent)", "chain": "LQQLRARLQGLEADCVRGPDGVCL"}},
  "data": [
    {"variants_of": "B1", "assay": "protein stability index of a GFP-peptide fusion (GPS, HEK-293T) (PSI 1-6); higher = more stable", "conditions": "c terminus: a fixed tail appended", "values": [
      {"variant": "FSEIRETSAKVNWMPPPSRADLFK", "note": "[S22L]", "protein stability index": 3.22},
      {"variant": "FSEIRETSAKVNWMPPPSRADQFK", "note": "[S22Q]", "protein stability index": 3.42},
      {"variant": "FSEIRETSAKVNWMPPPSRADRFK", "note": "[S22R]", "protein stability index": 3.95},
      {"variant": "FSEIRETSAKVNWMPPPSRADGFK", "note": "[S22G]", "protein stability index": 2.97},
      {"variant": "FSEIRETSAKVNWMPPPSRADDFK", "note": "[S22D]", "protein stability index": 3.62},
      {"variant": "FSEIRETSAKVNWMPPPSRADKFK", "note": "[S22K]", "protein stability index": 3.58},
      {"variant": "FSEIRETSAKVNWMPPPSRADMFK", "note": "[S22M]", "protein stability index": 2.79},
      {"variant": "FSEIRETSAKVNWMPPPSRADNFK", "note": "[S22N]", "protein stability index": 3.38},
      {"variant": "FSEIRETSAKVNWMPPPSRADPFK", "note": "[S22P]", "protein stability index": 3.36},
      {"variant": "FSEIRETSAKVNWMPPPSRADFFK", "note": "[S22F]", "protein stability index": 2.39},
      {"variant": "FSEIRETSAKVNWMPPPSRADTFK", "note": "[S22T]", "protein stability index": 3.26},
      {"variant": "FSEIRETSAKVNWMPPPSRADAFK", "note": "[S22A]", "protein stability index": 3.32},
      {"variant": "FSEIRETSAKVNWMPPPSRADIFK", "note": "[S22I]", "protein stability index": 3.38},
      {"variant": "FSEIRETSAKVNWMPPPSRADCFK", "note": "[S22C]", "protein stability index": 3.29},
      {"variant": "FSEIRETSAKVNWMPPPSRADVFK", "note": "[S22V]", "protein stability index": 2.94},
      {"variant": "FSEIRETSAKVNWMPPPSRADEFK", "note": "[S22E]", "protein stability index": 3.69},
      {"variant": "FSEIRETSAKVNWMPPPSRADYFK", "note": "[S22Y]", "protein stability index": 3.32},
      {"variant": "FSEIRETSAKVNWMPPPSRADWFK", "note": "[S22W]", "protein stability index": 2.62},
      {"variant": "FSEIRETSAKVNWMPPPSRADHFK", "note": "[S22H]", "protein stability index": 3.27},
      {"variant": "FSEIRETSAKVNWMPPPSRAYSFK", "note": "[D21Y]", "protein stability index": 3.01},
      {"variant": "FSEIRETSAKVNWMPPPSRADSLK", "note": "[F23L]", "protein stability index": 3.91},
      {"variant": "FSEIRETSAKVNWMPPPSRADSHK", "note": "[F23H]", "protein stability index": 4.12},
      {"variant": "FSEIRETSAKVNWMPPPSRADSIK", "note": "[F23I]", "protein stability index": 3.5},
      {"variant": "FSEIRETSAKVNWMPPPSRADSQK", "note": "[F23Q]", "protein stability index": 3.58},
      {"variant": "FSEIRETSAKVNWMPPPSRADSEK", "note": "[F23E]", "protein stability index": 4.33},
      {"variant": "FSEIRETSAKVNWMPPPSRADSPK", "note": "[F23P]", "protein stability index": 4.55},
      {"variant": "FSEIRETSAKVNWMPPPSRADSWK", "note": "[F23W]", "protein stability index": 3.32},
      {"variant": "FSEIRETSAKVNWMPPPSRADSKK", "note": "[F23K]", "protein stability index": 4.12},
      {"variant": "FSEIRETSAKVNWMPPPSRADSDK", "note": "[F23D]", "protein stability index": 4.56},
      {"variant": "FSEIRETSAKVNWMPPPSRADSGK", "note": "[F23G]", "protein stability index": 3.24},
      {"variant": "FSEIRETSAKVNWMPPPSRADSVK", "note": "[F23V]", "protein stability index": 4.07},
      {"variant": "FSEIRETSAKVNWMPPPSRADSCK", "note": "[F23C]", "protein stability index": 4.22},
      {"variant": "FSEIRETSAKVNWMPPPSRADSSK", "note": "[F23S]", "protein stability index": 3.89},
      {"variant": "FSEIRETSAKVNWMPPPSRADSMK", "note": "[F23M]", "protein stability index": 3.82},
      {"variant": "FSEIRETSAKVNWMPPPSRADSNK", "note": "[F23N]", "protein stability index": 4.1},
      {"variant": "FSEIRETSAKVNWMPPPSRADSYK", "note": "[F23Y]", "protein stability index": 3.09},
      {"variant": "FSEIRETSAKVNWMPPPSRADSRK", "note": "[F23R]", "protein stability index": 4.44},
      {"variant": "FSEIRETSAKVNWMPPPSRADSAK", "note": "[F23A]", "protein stability index": 4.04},
      {"variant": "FSEIRETSAKVNWMPPPSRADSTK", "note": "[F23T]", "protein stability index": 4.06},
      {"variant": "FSEIRETSAKVNWMPPPSRADSFY", "note": "[K24Y]", "protein stability index": 2.64},
      {"variant": "FSEIRETSAKVNWMPPPSRADSFH", "note": "[K24H]", "protein stability index": 2.73},
      {"variant": "FSEIRETSAKVNWMPPPSRADSFV", "note": "[K24V]", "protein stability index": 2.63},
      {"variant": "FSEIRETSAKVNWMPPPSRADSFD", "note": "[K24D]", "protein stability index": 3.41},
      {"variant": "FSEIRETSAKVNWMPPPSRADSFQ", "note": "[K24Q]", "protein stability index": 3.33},
      {"variant": "FSEIRETSAKVNWMPPPSRADSFR", "note": "[K24R]", "protein stability index": 3.29},
      {"variant": "FSEIRETSAKVNWMPPPSRADSFP", "note": "[K24P]", "protein stability index": 3.14},
      {"variant": "FSEIRETSAKVNWMPPPSRADSFG", "note": "[K24G]", "protein stability index": 3.35},
      {"variant": "FSEIRETSAKVNWMPPPSRADSFN", "note": "[K24N]", "protein stability index": 3.43},
      {"variant": "FSEIRETSAKVNWMPPPSRADSFC", "note": "[K24C]", "protein stability index": 2.94},
      {"variant": "FSEIRETSAKVNWMPPPSRADSFS", "note": "[K24S]", "protein stability index": 3.29},
      {"variant": "FSEIRETSAKVNWMPPPSRADSFI", "note": "[K24I]", "protein stability index": 2.44},
      {"variant": "FSEIRETSAKVNWMPPPSRADSFF", "note": "[K24F]", "protein stability index": 2.47},
      {"variant": "FSEIRETSAKVNWMPPPSRADSFA", "note": "[K24A]", "protein stability index": 2.92},
      {"variant": "FSEIRETSAKVNWMPPPSRADSFT", "note": "[K24T]", "protein stability index": 3.37},
      {"variant": "FSEIRETSAKVNWMPPPSRADSFL", "note": "[K24L]", "protein stability index": 2.42},
      {"variant": "FSEIRETSAKVNWMPPPSRADSFM", "note": "[K24M]", "protein stability index": 2.48},
      {"variant": "FSEIRETSAKVNWMPPPSRADSFE", "note": "[K24E]", "protein stability index": 3.21},
      {"variant": "FSEIRETSAKVNWMPPPSRADSFW", "note": "[K24W]", "protein stability index": 1.69}
    ]},
    {"variants_of": "B2", "assay": "protein stability index of a GFP-peptide fusion (GPS, HEK-293T) (PSI 1-6); higher = more stable", "conditions": "c terminus: a fixed tail appended", "values": [
      {"variant": "LQQLRYRLQGLEADCVRGPDGVCL", "note": "[A6Y]", "protein stability index": 2.03},
      {"variant": "LQQLRDRLQGLEADCVRGPDGVCL", "note": "[A6D]", "protein stability index": 2},
      {"variant": "LQQLRRRLQGLEADCVRGPDGVCL", "note": "[A6R]", "protein stability index": 1.32},
      {"variant": "LQQLRIRLQGLEADCVRGPDGVCL", "note": "[A6I]", "protein stability index": 1.43},
      {"variant": "LQQLRWRLQGLEADCVRGPDGVCL", "note": "[A6W]", "protein stability index": 3.19},
      {"variant": "LQQLRVRLQGLEADCVRGPDGVCL", "note": "[A6V]", "protein stability index": 2.4},
      {"variant": "LQQLRQRLQGLEADCVRGPDGVCL", "note": "[A6Q]", "protein stability index": 1.54},
      {"variant": "LQQLRARLQGLEAYCVRGPDGVCL", "note": "[D14Y]", "protein stability index": 1.14},
      {"variant": "LQQLRARLQGLEAGCVRGPDGVCL", "note": "[D14G]", "protein stability index": 1.15},
      {"variant": "LQQLRARLQGLEAICVRGPDGVCL", "note": "[D14I]", "protein stability index": 2.73},
      {"variant": "LQQLRARLQGLEAPCVRGPDGVCL", "note": "[D14P]", "protein stability index": 2.1},
      {"variant": "LQQLRARLQGLEAWCVRGPDGVCL", "note": "[D14W]", "protein stability index": 1.32},
      {"variant": "LQQLRARLQGLEADCVRGPDGCCL", "note": "[V22C]", "protein stability index": 1.84},
      {"variant": "LQQLRARLQGLEADCVRGPDGKCL", "note": "[V22K]", "protein stability index": 2.39},
      {"variant": "LQQLRARLQGLEADCVRGPDGLCL", "note": "[V22L]", "protein stability index": 1.46},
      {"variant": "LQQLRARLQGLEADCVRGPDGVCT", "note": "[L24T]", "protein stability index": 1.74},
      {"variant": "LQQLRARLQGLEADCVRGPDGVCN", "note": "[L24N]", "protein stability index": 3.04},
      {"variant": "LQQLRARLQGLEADCVRGPDGVCS", "note": "[L24S]", "protein stability index": 2.89},
      {"variant": "LQQLRARLQGLEADCVRGPDGVCQ", "note": "[L24Q]", "protein stability index": 3.1},
      {"variant": "LQQLRARLDGLEADCVRGPDGVCL", "note": "[Q9D]", "protein stability index": 2.86},
      {"variant": "LQQLRARLGGLEADCVRGPDGVCL", "note": "[Q9G]", "protein stability index": 2.28},
      {"variant": "LQQLRARLSGLEADCVRGPDGVCL", "note": "[Q9S]", "protein stability index": 1.37},
      {"variant": "LQQLRARLPGLEADCVRGPDGVCL", "note": "[Q9P]", "protein stability index": 2.8},
      {"variant": "LQQLRARLKGLEADCVRGPDGVCL", "note": "[Q9K]", "protein stability index": 1.87},
      {"variant": "LQQLRARLCGLEADCVRGPDGVCL", "note": "[Q9C]", "protein stability index": 3.05},
      {"variant": "LQQLRARLHGLEADCVRGPDGVCL", "note": "[Q9H]", "protein stability index": 2.42},
      {"variant": "LQQLRARLQGLEADCVRGPDGVEL", "note": "[C23E]", "protein stability index": 2.98},
      {"variant": "LQQLRARLQGLEADCVRGPDGVKL", "note": "[C23K]", "protein stability index": 2.03},
      {"variant": "LQQLRARLQALEADCVRGPDGVCL", "note": "[G10A]", "protein stability index": 1.24},
      {"variant": "LQQLRARLQWLEADCVRGPDGVCL", "note": "[G10W]", "protein stability index": 2.15},
      {"variant": "LQQLRARLQILEADCVRGPDGVCL", "note": "[G10I]", "protein stability index": 1.65},
      {"variant": "LQQFRARLQGLEADCVRGPDGVCL", "note": "[L4F]", "protein stability index": 2.97},
      {"variant": "LQQSRARLQGLEADCVRGPDGVCL", "note": "[L4S]", "protein stability index": 3.01},
      {"variant": "LQQWRARLQGLEADCVRGPDGVCL", "note": "[L4W]", "protein stability index": 2.65},
      {"variant": "LQQIRARLQGLEADCVRGPDGVCL", "note": "[L4I]", "protein stability index": 1.49},
      {"variant": "LQQQRARLQGLEADCVRGPDGVCL", "note": "[L4Q]", "protein stability index": 3.48}
    ]}
  ]
}
